Experimental data from article PMC3575409, “Identification of a Novel Protein-Protein Interaction Motif Mediating Interaction of GPCR-Associated Sorting Proteins with G Protein-Coupled Receptors” (PLoS ONE, 2013).

Tests used:
GST-fused ADRB1 C-tail = assay: GST-pull down, ADRB1 C-tail; type: binding; conditions: percent of full-length GASP-1 interaction; three independent experiments
How it was run: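 In vitro translated, [35S]-methionine-labelled GASP proteins were tested for retention by immobilized GST-tagged receptor C-terminal tails over 1 h at 4°C. Retained radioactivity after washing and SDS-PAGE gave the quantified binding, averaged over at least three independent experiments.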

GST-fused DOR C-tail = assay: GST-pull down, DOR C-tail; type: binding; conditions: percent of full-length GASP-1 interaction; three independent experiments
How it was run: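 Phosphorimager quantification of [35S]-labelled GASP retained on GST-fused receptor C-tails after SDS-PAGE. Binding: glutathione-bead-bound fusions plus in vitro translated GASP, 1 h at 4°C, pH 7.4 Tris/NaCl/EDTA/DTT buffer with 1% Triton X-100. Means of at least three independent experiments.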

GST-fused ADRB2 C-tail = assay: GST-pull down, ADRB2 C-tail; type: binding; conditions: central domain compared to full-length GASP-1
Description: cDNAs encoding the cytoplasmic C-tail of 14 GPCRs and 2 one-transmembrane receptors were cloned into the pGEX-2T prokaryotic expression vector downstream the GST sequence. […]
GST-fusion proteins were immobilized on glutathione-coupled Sepharose beads (GE Healthcare) for 1 h at 4°C and incubated with [^35S]-labelled in vitro translated GASP proteins or their truncated or mutated forms in ice-cold binding buffer containing: 20 mM Tris-HCl pH 7.4, 150 mM NaCl, 1 mM EDTA, 1 mM DTT, 10% glycerol and 1% Triton X-100. […] The supernatants were then analyzed by SDS-PAGE, the gels were stained with Coomassie blue to visualize GST-fusion proteins, dried and analyzed using a Phosphor-imager (Personal Molecular Imager FX, Biorad) to visualize [^35S]-labelled GASPs. Quantification was performed with the Quantity One software (Biorad). GST-pull down quantification data were analyzed using GraphPad Prism 4.03 (GraphPad Software). Quantifications presented are means of at least three independent experiments.

[1] = test system: GFP-tagged ADRB1 in HEK293 cells; assay: Co-immunoprecipitation, ADRB1; type: cell-based; conditions: 48 h expression, anti-GFP immunoprecipitation
Description: (§1) HEK293 cells stably expressing N-terminal GFP-tagged ADRB1, ADRB2, CALCR and M1 or MyrPalm-mYFP were transfected with pcDNA3.1 containing the sequence for a central domain of GASP-1 (AA 380 to 1073) using JetPEI reagent (polyplus transfection) according to the instructions from the manufacturer. After 48 h of expression, cells were washed twice with PBS and lysed in a buffer containing 10 mM Tris-HCl, pH 7.4, 150 mM NaCl, 25 mM KCl, 0.3% Triton X-100 and cOmplete protease inhibitors (Roche) for 1 h at 4°C under agitation. 500 µg of cleared lysates were incubated with 1 µg of a mouse monoclonal anti-GFP antibody (Invitrogen) overnight at 4°C, followed by an incubation with 40 µl of protein A-Sepharose beads for an additional 2 h at 4°C. Beads were then washed five times in lysis buffer and precipitates were resolved on an 8% gel by SDS–PAGE and electrotransferred to immobilon-P membranes (Millipore) in 50 mM Tris-boric acid for 1 h at 300 mA. Membranes were blocked with 5% non-fat powder milk in TBS-Tween (50 mM Tris-HCl pH 8, 150 mM NaCl, 0.4% Tween-20) for 1 h at room temperature. […] For immunodetection of GASP or GFP-tagged receptors directly from cell lysates, 10 µg of proteins were loaded on SDS gels and analyzed following the procedure described above. Finally, membranes were washed in TBS-Tween and detected by chemiluminescence (ECL prime, GE Healthcare). […]

[2] = test system: GFP-tagged ADRB2 in HEK293 cells; assay: Co-immunoprecipitation, ADRB2; type: cell-based; conditions: 48 h expression, anti-GFP immunoprecipitation
Description: as §1

[3] = test system: GFP-tagged CALCR in HEK293 cells; assay: Co-immunoprecipitation, CALCR; type: cell-based; conditions: 48 h expression, anti-GFP immunoprecipitation
Description: as §1

B1: central domain of GASP-1: central portion of GASP-1 (AA 380 to 1073) that contains 19 GASP motif (protein)
chain: MTKEEAKTKARARAKQEARSEEEALIGTWFWATDESSMADEASIESSLQVEDESIIGSWFWTEEEASMGTGASSKSRPRTDGERIGDSLFGAREKTSMKTGAEATSESILAADDEQVIIGSWFWAGEEVNQEAEEETIFGSWFWVIDAASVESGVGVSCESRTRSEEEEVIGPWFWSGEQVDIEAGIGEEARPGAEEETIFGSWFWAENQTYMDCRAETSCDTMQGAEEEEPIIGSWFWTRVEACVEGDVNSKSSLEDKEEAMIPCFGAKEEVSMKHGTGVRCRFMAGAEETNNKSCFWAEKEPCMYPAGGGSWKSRPEEEEDIVNSWFWSRKYTKPEAIIGSWLWATEESNIDGTGEKAKLLTEEETIINSWFWKEDEAISEATDREESRPEAEEGDIIGSWFWAGEEDRLEPAAETREEDRLAAEKEGIVGSWFGAREETIRREAGSCSKSSPKAEEEEVIIGSWFWEEEASPEAVAGVGFESKPGTEEEEITVGSWFWPEEEASIQAGSQAVEEMESETEEETIFGSWFWDGKEVSEEAGPCCVSKPEDDEEMIVESWFWSRDKAIKETGTVATCESKPENEEGAIVGSWFEAEDEVDNRTDNGSNCGSRTLADEDEAIVGSWFWAGDEAHFESNPSPVFRAICRSTCSVEQEPDPSRRPQSWEEVTVQFKPGPWGRVGFPSISPFRFPKE
modifications: left off: GST, N-terminal, kept
notes: central portion of GASP-1 (AA 380 to 1073) that contains 19 GASP motif
With B1 the “interaction with ADRB1 C-tail relative to full-length GASP-1” value (GST-fused ADRB1 C-tail) was “around 70%”, the “interaction with DOR C-tail relative to full-length GASP-1” value (GST-fused DOR C-tail) was roughly 30% and the “interaction with ADRB2 C-tail” value (GST-fused ADRB2 C-tail) was “mandatory and sufficient for this interaction”. The “co-immunoprecipitation with ADRB1” value [1] was “co-immunoprecipitated”, the “co-immunoprecipitation with ADRB2” value [2] was “co-immunoprecipitated” and the “co-immunoprecipitation with CALCR” value [3] was “co-immunoprecipitated”.
